In patent US20140017212:

What was measured:
Test in all cases: cell_activity
ZFN SBS34931 = conditions: HepG2-C3a, paired with 33940
TALEN 102256 = test system: TALEN 102256
TALEN 102255 = test system: TALEN 102255
TALEN 102265 = test system: TALEN 102265
TALEN 102266 = conditions: C17, with 102268, HepG2-C3a
TALEN 102252 = test system: TALEN 102252
TALEN 102268 = test system: TALEN 102268
TALEN 102267 = test system: TALEN 102267
TALEN 102264 = conditions: C63, with 102261, HepG2-C3a
TALEN 102253 = test system: TALEN 102253
TALEN 102254 = test system: TALEN 102254
TALEN 102259 = test system: TALEN 102259
TALEN 102262 = conditions: C63, with 102264, HepG2-C3a
ZFN SBS35399 = conditions: Cel-I, paired with 35361
ZFN SBS35398 = conditions: Cel-I, paired with 35361
ZFN SBS35405 = conditions: Cel-I, paired with 35370
ZFN SBS35393 = conditions: Cel-I, paired with 35370
ZFN SBS35394 = conditions: Cel-I, paired with 35364
ZFN SBS35396 = conditions: Cel-I, paired with 35361; 31 and 29% in HepG2-C3a (Table 10)
ZFN SBS35480 = conditions: Cel-I, paired with 35426
ZFN SBS35458 = conditions: Cel-I, paired with 35428; 10 and 7% with 35426 in HepG2-C3a (Table 10)
TALEN 102263 = conditions: C63, with 102261, HepG2-C3a
TALEN 102257 = test system: TALEN 102257
TALEN 102258 = test system: TALEN 102258
TALEN 102260 = test system: TALEN 102260
ZFN SBS33940 = conditions: HepG2-C3a, paired with 34931
TALEN 102251 = conditions: C17, with 102249, HepG2-C3a
TALEN 102249 = test system: TALEN 102249
TALEN 102250 = test system: TALEN 102250
TALEN 102271 = conditions: C17, with 102269, HepG2-C3a
TALEN 102261 = conditions: C63, with 102264, HepG2-C3a
ZFN SBS35428 = conditions: Cel-I, paired with 35480
ZFN SBS35426 = conditions: Cel-I, paired with 35480
ZFN SBS35364 = conditions: Cel-I, paired with 35394
ZFN SBS35361 = conditions: Cel-I, paired with 35396; 31 and 29% in HepG2-C3a (Table 10)
ZFN SBS35370 = conditions: Cel-I, paired with 35405
ZFN SBS35379 = conditions: Cel-I, paired with 35393
TALEN 102269 = conditions: C17, with 102271, HepG2-C3a

ACCAAGAAGACAGACTAAAATGAAAATA (double strand) [34931 site]
activity (% modification) (ZFN SBS34931): 7.3

ATAAAGCATAGTGCAATGG (double strand) [102256 site]
activity (% modification) (TALEN 102256; C17, with 102254, HepG2-C3a): 28
activity (% modification) (TALEN 102256; C63, with 102253, HepG2-C3a): 23

ATAAAGCATAGTGCAATGGAT (double strand) [102255 site]
activity (% modification) (TALEN 102255; C17, with 102254, HepG2-C3a): 43
activity (% modification) (TALEN 102255; C63, with 102253, HepG2-C3a): 21

ATAATTGAACATCATCCTG (double strand) [102265 site]
activity (% modification) (TALEN 102265; C17, with 102267, HepG2-C3a): 47
activity (% modification) (TALEN 102265; C63, with 102267, HepG2-C3a): 9.8

ATAATTGAACATCATCCTGAG (double strand) [102266 site]
activity (% modification) (TALEN 102266): 10

ATAGTGCAATGGATAGGTC (double strand) [102252 site]
activity (% modification) (TALEN 102252; C17, with 102250, HepG2-C3a): 32
activity (% modification) (TALEN 102252; C63, with 102249, HepG2-C3a): 8.3

ATATTGGGCTCTGATTCCT (double strand) [102268 site]
activity (% modification) (TALEN 102268; C17, with 102266, HepG2-C3a): 10
activity (% modification) (TALEN 102268; C63, with 102265, HepG2-C3a): 7.9

ATATTGGGCTCTGATTCCTAC (double strand) [102267 site]
activity (% modification) (TALEN 102267; C17, with 102265, HepG2-C3a): 47
activity (% modification) (TALEN 102267; C63, with 102265, HepG2-C3a): 9.8

ATCTAATACTCTTTTAGTGTC (double strand) [102264 site]
activity (% modification) (TALEN 102264): 22

ATTGAATTCATAACTATCC (double strand) [102253 site]
activity (% modification) (TALEN 102253; C17, with 102255, HepG2-C3a): 38
activity (% modification) (TALEN 102253; C63, with 102256, HepG2-C3a): 23

ATTGAATTCATAACTATCCCA (double strand) [102254 site]
activity (% modification) (TALEN 102254; C17, with 102255, HepG2-C3a): 43
activity (% modification) (TALEN 102254; C63, with 102256, HepG2-C3a): 16

ATTTATGAGATCAACAGCACA (double strand) [102259 site]
activity (% modification) (TALEN 102259; C17, with 102257, HepG2-C3a): 18
activity (% modification) (TALEN 102259; C63, with 102257, HepG2-C3a): 15

ATTTTAGTCTGTCTTCTTG (double strand) [102262 site]
activity (% modification) (TALEN 102262): 17

CCTATCCATTGCACTATGCTTTATTTAA (double strand) [locus 2 right site]
activity (% mutated targets) (ZFN SBS35399): 23
activity (% mutated targets) (ZFN SBS35398): 22
activity (% mutated targets) (ZFN SBS35405): 23
activity (% mutated targets) (ZFN SBS35393): 21
activity (% mutated targets) (ZFN SBS35394): 24
activity (% mutated targets) (ZFN SBS35396): 25

CCTGTGCTGTTGATCTCATAAATAGAAC (double strand) [locus 3 right site]
activity (% mutated targets) (ZFN SBS35480): 7
activity (% mutated targets) (ZFN SBS35458): 4.9

CTAATACTCTTTTAGTGTCT (double strand) [102263 site]
activity (% modification) (TALEN 102263): 16

CTATGCTTTATTTAAAAAC (double strand) [102257 site]
activity (% modification) (TALEN 102257; C17, with 102259, HepG2-C3a): 18
activity (% modification) (TALEN 102257; C63, with 102259, HepG2-C3a): 15

CTATGCTTTATTTAAAAACCA (double strand) [102258 site]
activity (% modification) (TALEN 102258; C17, with 102260, HepG2-C3a): 24
activity (% modification) (TALEN 102258; C63, with 102260, HepG2-C3a): 11

CTATTTATGAGATCAACAGCA (double strand) [102260 site]
activity (% modification) (TALEN 102260; C17, with 102258, HepG2-C3a): 24
activity (% modification) (TALEN 102260; C63, with 102257, HepG2-C3a): 13

CTGTTGATAGACACTAAAAGAGTATTAG (double strand) [33940 site]
activity (% modification) (ZFN SBS33940): 7.3

GTGCAATGGATAGGTCTTT (double strand) [102251 site]
activity (% modification) (TALEN 102251): 15

GTTGAAGATTGAATTCATA (double strand) [102249 site]
activity (% modification) (TALEN 102249; C17, with 102251, HepG2-C3a): 15
activity (% modification) (TALEN 102249; C63, with 102252, HepG2-C3a): 8.3

GTTGAAGATTGAATTCATAAC (double strand) [102250 site]
activity (% modification) (TALEN 102250; C17, with 102252, HepG2-C3a): 32
activity (% modification) (TALEN 102250; C63, with 102252, HepG2-C3a): 8

TTATGCATTTGTTTCAAAA (double strand) [102271 site]
activity (% modification) (TALEN 102271): 14

TTCATTTTAGTCTGTCTTCTT (double strand) [102261 site]
activity (% modification) (TALEN 102261): 22

TTGTGGTTTTTAAATAAAGCATAGTGCA (double strand) [locus 3 left site]
activity (% mutated targets) (ZFN SBS35428): 6
activity (% mutated targets) (ZFN SBS35426): 7

TTTGGGATAGTTATGAATTCAATCTTCA (double strand) [locus 2 left site]
activity (% mutated targets) (ZFN SBS35364): 24
activity (% mutated targets) (ZFN SBS35361): 25
activity (% mutated targets) (ZFN SBS35370): 23
activity (% mutated targets) (ZFN SBS35379): 21

TTTTTCTGTAGGAATCAGA (double strand) [102269 site]
activity (% modification) (TALEN 102269): 14
